Experimental data reported in PMC9482650, “Quantitative fragmentomics allow affinity mapping of interactomes” (Nature Communications, 2022).

T1: GRIP1_5, Q9Y3R0
T1 sequence (Q9Y3R0 568-668, limits assumed, looked up): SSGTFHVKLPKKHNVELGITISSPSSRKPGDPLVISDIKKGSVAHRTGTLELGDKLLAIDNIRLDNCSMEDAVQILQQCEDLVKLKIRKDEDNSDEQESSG

T2: APBA1_1, Q02410
T2 sequence (Q02410 651-752, limits assumed, looked up): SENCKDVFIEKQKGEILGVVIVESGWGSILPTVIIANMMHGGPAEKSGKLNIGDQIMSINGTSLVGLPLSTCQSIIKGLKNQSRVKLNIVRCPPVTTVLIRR

T3: HTRA3, P83110
T3 sequence (P83110 354-453, limits assumed, looked up): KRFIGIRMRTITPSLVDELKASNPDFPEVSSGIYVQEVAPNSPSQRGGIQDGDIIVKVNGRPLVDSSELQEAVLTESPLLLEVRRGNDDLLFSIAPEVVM

T4: FRMPD1, Q5SYB0
T4 sequence (Q5SYB0 52-145, limits assumed, looked up): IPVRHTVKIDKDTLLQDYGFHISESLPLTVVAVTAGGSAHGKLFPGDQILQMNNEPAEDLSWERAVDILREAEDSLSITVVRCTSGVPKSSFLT

T5: DFNB31_2, Q9P202
T5 sequence (Q9P202 274-371, limits assumed, looked up): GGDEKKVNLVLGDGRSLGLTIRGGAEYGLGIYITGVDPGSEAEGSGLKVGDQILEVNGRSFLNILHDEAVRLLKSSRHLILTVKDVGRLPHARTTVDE

T6: APBA1_2, Q02410
T6 sequence (Q02410 742-832, limits assumed, looked up): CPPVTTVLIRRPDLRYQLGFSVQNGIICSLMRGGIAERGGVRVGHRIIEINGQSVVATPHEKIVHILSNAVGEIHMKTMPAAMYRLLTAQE

T7: DVL3, Q92997
T7 sequence (Q92997 244-331, limits assumed, looked up): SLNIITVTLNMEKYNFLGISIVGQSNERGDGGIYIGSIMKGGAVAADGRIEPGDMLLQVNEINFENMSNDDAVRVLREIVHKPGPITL

T8: DLG3_3, Q92796
T8 sequence (Q92796 374-475, limits assumed, looked up): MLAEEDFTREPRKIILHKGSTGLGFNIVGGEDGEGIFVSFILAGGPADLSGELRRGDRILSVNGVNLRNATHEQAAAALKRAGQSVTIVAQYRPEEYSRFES

T9: LNX2_2, Q8N448
T9 sequence (Q8N448 334-432, limits assumed, looked up): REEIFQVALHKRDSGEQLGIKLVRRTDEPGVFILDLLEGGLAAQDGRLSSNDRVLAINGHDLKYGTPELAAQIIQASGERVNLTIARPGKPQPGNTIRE


Legend:
Experiment in all cases: holdup assay
Set-up in all cases: key: below the threshold = too weak to quantify, mostly under pKd 3.1 to 4
Details in all cases: plain residues with an end cap or a label only (N-terminal biotin on a linker: ado-ado)
AHNAK1, Q09666 = biological target: AHNAK1, Q09666
AHNAK1, Q09666, sequence (Q09666 4-100): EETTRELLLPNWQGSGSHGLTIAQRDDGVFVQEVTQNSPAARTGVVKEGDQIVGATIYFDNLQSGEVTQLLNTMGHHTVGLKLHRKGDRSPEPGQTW

PTPN3, P26045 = biological target: PTPN3, P26045
PTPN3, P26045, sequence (P26045 505-587): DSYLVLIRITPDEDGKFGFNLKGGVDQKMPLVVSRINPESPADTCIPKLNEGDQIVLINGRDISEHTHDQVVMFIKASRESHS

TJP1_3, Q07157 = biological target: TJP1_3, Q07157
TJP1_3, Q07157, sequence (Q07157 416-512): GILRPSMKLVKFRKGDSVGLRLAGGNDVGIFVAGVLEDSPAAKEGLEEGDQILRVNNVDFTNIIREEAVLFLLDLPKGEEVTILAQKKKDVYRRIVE

GRIP1_5, Q9Y3R0 = biological target: T1, GRIP1_5, Q9Y3R0
Inadl_4, Q8NI35 = biological target: Inadl_4, Q8NI35
Inadl_4, Q8NI35, sequence (Q8NI35 547-651): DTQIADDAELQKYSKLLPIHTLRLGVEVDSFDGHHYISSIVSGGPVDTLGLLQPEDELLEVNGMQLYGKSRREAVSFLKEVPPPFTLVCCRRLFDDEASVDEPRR

TJP2_1, Q9UDY2 = biological target: TJP2_1, Q9UDY2
TJP2_1, Q9UDY2, sequence (Q9UDY2 24-128): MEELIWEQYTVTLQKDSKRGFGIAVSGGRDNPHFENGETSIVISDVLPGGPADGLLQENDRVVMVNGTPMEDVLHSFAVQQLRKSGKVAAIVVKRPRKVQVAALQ

NOS1, P29475 = biological target: NOS1, P29475
NOS1, P29475, sequence (P29475 9-101): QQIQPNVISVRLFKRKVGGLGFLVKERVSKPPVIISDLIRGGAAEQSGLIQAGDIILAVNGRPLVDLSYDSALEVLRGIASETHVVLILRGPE

APBA1_1, Q02410 = biological target: T2, APBA1_1, Q02410
Inadl_8, Q8NI35 = biological target: Inadl_8, Q8NI35
Inadl_8, Q8NI35, sequence (Q8NI35 1425-1530): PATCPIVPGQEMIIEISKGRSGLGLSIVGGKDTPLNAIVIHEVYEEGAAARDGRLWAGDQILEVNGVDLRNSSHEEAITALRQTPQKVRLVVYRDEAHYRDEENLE

HTRA3, P83110 = biological target: T3, HTRA3, P83110
PDLIM1, O00151 = biological target: PDLIM1, O00151
PDLIM1, O00151, sequence (O00151 1-87): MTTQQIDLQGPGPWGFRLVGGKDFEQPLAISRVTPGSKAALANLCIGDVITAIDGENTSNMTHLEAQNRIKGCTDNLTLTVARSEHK

Inadl_5, Q8NI35 = biological target: Inadl_5, Q8NI35
Inadl_5, Q8NI35, sequence (Q8NI35 673-780): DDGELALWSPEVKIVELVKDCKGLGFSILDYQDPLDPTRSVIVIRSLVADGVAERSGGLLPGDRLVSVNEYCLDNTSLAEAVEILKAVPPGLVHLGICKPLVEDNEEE

FRMPD1, Q5SYB0 = biological target: T4, FRMPD1, Q5SYB0
SCRIB_3, Q14160 = biological target: SCRIB_3, Q14160
SCRIB_3, Q14160, sequence (Q14160 999-1103): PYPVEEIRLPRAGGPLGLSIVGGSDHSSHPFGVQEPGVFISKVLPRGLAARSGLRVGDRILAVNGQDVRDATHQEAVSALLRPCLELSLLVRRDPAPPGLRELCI

DFNB31_2, Q9P202 = biological target: T5, DFNB31_2, Q9P202
APBA1_2, Q02410 = biological target: T6, APBA1_2, Q02410
Inadl_9, Q8NI35 = biological target: Inadl_9, Q8NI35
Inadl_9, Q8NI35, sequence (Q8NI35 1530-1615): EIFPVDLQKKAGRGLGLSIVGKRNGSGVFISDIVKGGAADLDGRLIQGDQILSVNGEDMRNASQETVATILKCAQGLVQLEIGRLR

Inadl_10, Q8NI35 = biological target: Inadl_10, Q8NI35
Inadl_10, Q8NI35, sequence (Q8NI35 1673-1763): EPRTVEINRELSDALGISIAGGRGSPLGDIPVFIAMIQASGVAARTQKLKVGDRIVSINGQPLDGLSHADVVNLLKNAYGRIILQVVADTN

DVL3, Q92997 = biological target: T7, DVL3, Q92997
GRIP2_3, Q9C0E4 = biological target: GRIP2_3, Q9C0E4
GRIP2_3, Q9C0E4, sequence (Q9C0E4 238-339): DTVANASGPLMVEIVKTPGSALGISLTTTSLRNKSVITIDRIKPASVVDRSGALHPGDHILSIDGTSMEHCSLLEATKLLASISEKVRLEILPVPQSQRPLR

NHERF4_1, Q86UT5-2 = biological target: NHERF4_1, Q86UT5-2
NHERF4_1, Q86UT5-2, sequence (Q86UT5 other isoform, or with tags, fused parts or gaps): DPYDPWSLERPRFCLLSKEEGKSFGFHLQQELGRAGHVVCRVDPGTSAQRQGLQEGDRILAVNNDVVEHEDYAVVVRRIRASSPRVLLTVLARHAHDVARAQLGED

DLG3_3, Q92796 = biological target: T8, DLG3_3, Q92796
PDZRN4_1, Q6ZMN7 = biological target: PDZRN4_1, Q6ZMN7
PDZRN4_1, Q6ZMN7, sequence (Q6ZMN7 213-318): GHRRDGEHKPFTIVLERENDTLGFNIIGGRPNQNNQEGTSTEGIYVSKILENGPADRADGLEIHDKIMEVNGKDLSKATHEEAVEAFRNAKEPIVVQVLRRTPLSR

LNX2_2, Q8N448 = biological target: T9, LNX2_2, Q8N448
SCRIB_1, Q14160 = biological target: SCRIB_1, Q14160
SCRIB_1, Q14160, sequence (Q14160 718-814): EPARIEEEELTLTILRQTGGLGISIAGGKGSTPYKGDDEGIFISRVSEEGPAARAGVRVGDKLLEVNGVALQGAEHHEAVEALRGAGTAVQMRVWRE

DLG1_3, Q12959 = biological target: DLG1_3, Q12959
DLG1_3, Q12959, sequence (Q12959 457-571): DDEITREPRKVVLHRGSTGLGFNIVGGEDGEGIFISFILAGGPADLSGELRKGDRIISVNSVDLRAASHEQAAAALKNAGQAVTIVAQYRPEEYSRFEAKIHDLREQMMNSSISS

GOPC, Q9HD26 = biological target: GOPC, Q9HD26
DLG1_2, Q12959 = biological target: DLG1_2, Q12959
DLG1_2, Q12959, sequence (Q12959 314-412): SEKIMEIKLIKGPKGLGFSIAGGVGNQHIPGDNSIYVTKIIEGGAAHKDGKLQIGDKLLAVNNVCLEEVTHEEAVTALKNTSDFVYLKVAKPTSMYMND

FRMPD3, Q5JV73 = biological target: FRMPD3, Q5JV73
FRMPD3, Q5JV73, sequence (Q5JV73 12-100): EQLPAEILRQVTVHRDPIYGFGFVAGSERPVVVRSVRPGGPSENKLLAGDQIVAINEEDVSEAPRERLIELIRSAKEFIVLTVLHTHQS

Row | Binder | pKd (AHNAK1, Q09666) | pKd (PTPN3, P26045) | pKd (TJP1_3, Q07157) | pKd (GRIP1_5, Q9Y3R0) | pKd (Inadl_4, Q8NI35) | pKd (TJP2_1, Q9UDY2) | pKd (NOS1, P29475) | pKd (APBA1_1, Q02410) | pKd (Inadl_8, Q8NI35) | pKd (HTRA3, P83110) | pKd (PDLIM1, O00151) | pKd (Inadl_5, Q8NI35) | pKd (FRMPD1, Q5SYB0) | pKd (SCRIB_3, Q14160) | pKd (DFNB31_2, Q9P202) | pKd (APBA1_2, Q02410) | pKd (Inadl_9, Q8NI35) | pKd (Inadl_10, Q8NI35) | pKd (DVL3, Q92997) | pKd (GRIP2_3, Q9C0E4) | other results
1 | EKCGKEFSEF [PRKACA, P17612] | below the threshold | 3.98 | below the threshold | below the threshold | below the threshold | below the threshold | below the threshold | below the threshold | below the threshold | below the threshold | below the threshold | below the threshold | below the threshold | below the threshold | below the threshold | below the threshold | below the threshold | below the threshold | below the threshold | below the threshold | pKd (NHERF4_1, Q86UT5-2): 3.56; pKd (DLG3_3, Q92796): below the threshold; pKd (PDZRN4_1, Q6ZMN7): below the threshold; pKd (LNX2_2, Q8N448): 3.49; pKd (SCRIB_1, Q14160): below the threshold; pKd (DLG1_3, Q12959): below the threshold; pKd (GOPC, Q9HD26): below the threshold; pKd (DLG1_2, Q12959): 3.52; pKd (FRMPD3, Q5JV73): below the threshold
2 | TGLWKHETTV [ADGRA3, Q8IWK6] | below the threshold | 4.5 | below the threshold | below the threshold | below the threshold | 3.65 | below the threshold | below the threshold | below the threshold | below the threshold | below the threshold | below the threshold | below the threshold | 4.88 | below the threshold | 3.59 | 3.74 | below the threshold | below the threshold | below the threshold | pKd (NHERF4_1, Q86UT5-2): below the threshold; pKd (DLG3_3, Q92796): 4.77; pKd (PDZRN4_1, Q6ZMN7): 4.56; pKd (LNX2_2, Q8N448): 4.93; pKd (SCRIB_1, Q14160): 4.74; pKd (DLG1_3, Q12959): 4.78; pKd (GOPC, Q9HD26): 3.92; pKd (DLG1_2, Q12959): 5.48; pKd (FRMPD3, Q5JV73): below the threshold
3 | AAVENKVTDL [PLXNB1, O43157] | below the threshold | 4.68 | below the threshold | below the threshold | below the threshold | below the threshold | below the threshold | below the threshold | below the threshold | below the threshold | 3.77 | below the threshold | below the threshold | 4.94 | below the threshold | 4.23 | below the threshold | below the threshold | below the threshold | below the threshold | pKd (NHERF4_1, Q86UT5-2): 4; pKd (DLG3_3, Q92796): below the threshold; pKd (PDZRN4_1, Q6ZMN7): below the threshold; pKd (LNX2_2, Q8N448): below the threshold; pKd (SCRIB_1, Q14160): 4.62; pKd (DLG1_3, Q12959): below the threshold; pKd (GOPC, Q9HD26): 3.65; pKd (DLG1_2, Q12959): 4.45; pKd (FRMPD3, Q5JV73): below the threshold
4 | QKAPTKEFYA [SDC2, P34741] | below the threshold | 4.2 | below the threshold | below the threshold | below the threshold | below the threshold | 3.83 | below the threshold | below the threshold | 4.31 | below the threshold | below the threshold | below the threshold | below the threshold | below the threshold | below the threshold | below the threshold | below the threshold | below the threshold | below the threshold | pKd (NHERF4_1, Q86UT5-2): 3.57; pKd (DLG3_3, Q92796): below the threshold; pKd (PDZRN4_1, Q6ZMN7): below the threshold; pKd (LNX2_2, Q8N448): below the threshold; pKd (SCRIB_1, Q14160): below the threshold; pKd (DLG1_3, Q12959): below the threshold; pKd (GOPC, Q9HD26): below the threshold; pKd (DLG1_2, Q12959): 3.49; pKd (FRMPD3, Q5JV73): 3.89
5 | PYPTADHMLA [JUP, P14923] | below the threshold | 3.97 | below the threshold | below the threshold | below the threshold | below the threshold | below the threshold | below the threshold | below the threshold | below the threshold | below the threshold | below the threshold | below the threshold | below the threshold | below the threshold | below the threshold | below the threshold | below the threshold | below the threshold | below the threshold | pKd (NHERF4_1, Q86UT5-2): below the threshold; pKd (DLG3_3, Q92796): below the threshold; pKd (PDZRN4_1, Q6ZMN7): below the threshold; pKd (LNX2_2, Q8N448): below the threshold; pKd (SCRIB_1, Q14160): below the threshold; pKd (DLG1_3, Q12959): below the threshold; pKd (GOPC, Q9HD26): below the threshold; pKd (DLG1_2, Q12959): 3.6; pKd (FRMPD3, Q5JV73): below the threshold
